In IntAct's records for PubMed 31324769:

What was measured:
mon2_human MON2 = mon2_human MON2 (UniProt Q7Z3U7)
klc2_human KLC2 = klc2_human KLC2 (UniProt Q9H0B6)
Chain of klc2_human KLC2 (Q9H0B6 whole entry): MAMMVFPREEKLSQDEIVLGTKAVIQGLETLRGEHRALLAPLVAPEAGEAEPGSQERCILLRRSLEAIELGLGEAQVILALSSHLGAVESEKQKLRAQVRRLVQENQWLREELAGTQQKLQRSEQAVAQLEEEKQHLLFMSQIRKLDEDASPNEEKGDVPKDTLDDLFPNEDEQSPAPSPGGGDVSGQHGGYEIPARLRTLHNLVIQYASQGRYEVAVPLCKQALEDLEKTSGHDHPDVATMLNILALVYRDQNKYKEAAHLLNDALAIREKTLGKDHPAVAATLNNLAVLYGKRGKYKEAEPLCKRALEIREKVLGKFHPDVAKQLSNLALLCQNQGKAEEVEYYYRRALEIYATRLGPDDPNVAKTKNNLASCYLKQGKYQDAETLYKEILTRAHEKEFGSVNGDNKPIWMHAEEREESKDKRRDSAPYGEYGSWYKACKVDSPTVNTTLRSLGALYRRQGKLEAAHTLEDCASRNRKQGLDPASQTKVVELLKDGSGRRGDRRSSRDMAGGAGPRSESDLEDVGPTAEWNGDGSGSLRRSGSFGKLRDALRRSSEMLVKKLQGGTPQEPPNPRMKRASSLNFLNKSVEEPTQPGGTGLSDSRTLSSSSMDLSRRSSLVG

Chain of mon2_human MON2 (Q7Z3U7 whole entry): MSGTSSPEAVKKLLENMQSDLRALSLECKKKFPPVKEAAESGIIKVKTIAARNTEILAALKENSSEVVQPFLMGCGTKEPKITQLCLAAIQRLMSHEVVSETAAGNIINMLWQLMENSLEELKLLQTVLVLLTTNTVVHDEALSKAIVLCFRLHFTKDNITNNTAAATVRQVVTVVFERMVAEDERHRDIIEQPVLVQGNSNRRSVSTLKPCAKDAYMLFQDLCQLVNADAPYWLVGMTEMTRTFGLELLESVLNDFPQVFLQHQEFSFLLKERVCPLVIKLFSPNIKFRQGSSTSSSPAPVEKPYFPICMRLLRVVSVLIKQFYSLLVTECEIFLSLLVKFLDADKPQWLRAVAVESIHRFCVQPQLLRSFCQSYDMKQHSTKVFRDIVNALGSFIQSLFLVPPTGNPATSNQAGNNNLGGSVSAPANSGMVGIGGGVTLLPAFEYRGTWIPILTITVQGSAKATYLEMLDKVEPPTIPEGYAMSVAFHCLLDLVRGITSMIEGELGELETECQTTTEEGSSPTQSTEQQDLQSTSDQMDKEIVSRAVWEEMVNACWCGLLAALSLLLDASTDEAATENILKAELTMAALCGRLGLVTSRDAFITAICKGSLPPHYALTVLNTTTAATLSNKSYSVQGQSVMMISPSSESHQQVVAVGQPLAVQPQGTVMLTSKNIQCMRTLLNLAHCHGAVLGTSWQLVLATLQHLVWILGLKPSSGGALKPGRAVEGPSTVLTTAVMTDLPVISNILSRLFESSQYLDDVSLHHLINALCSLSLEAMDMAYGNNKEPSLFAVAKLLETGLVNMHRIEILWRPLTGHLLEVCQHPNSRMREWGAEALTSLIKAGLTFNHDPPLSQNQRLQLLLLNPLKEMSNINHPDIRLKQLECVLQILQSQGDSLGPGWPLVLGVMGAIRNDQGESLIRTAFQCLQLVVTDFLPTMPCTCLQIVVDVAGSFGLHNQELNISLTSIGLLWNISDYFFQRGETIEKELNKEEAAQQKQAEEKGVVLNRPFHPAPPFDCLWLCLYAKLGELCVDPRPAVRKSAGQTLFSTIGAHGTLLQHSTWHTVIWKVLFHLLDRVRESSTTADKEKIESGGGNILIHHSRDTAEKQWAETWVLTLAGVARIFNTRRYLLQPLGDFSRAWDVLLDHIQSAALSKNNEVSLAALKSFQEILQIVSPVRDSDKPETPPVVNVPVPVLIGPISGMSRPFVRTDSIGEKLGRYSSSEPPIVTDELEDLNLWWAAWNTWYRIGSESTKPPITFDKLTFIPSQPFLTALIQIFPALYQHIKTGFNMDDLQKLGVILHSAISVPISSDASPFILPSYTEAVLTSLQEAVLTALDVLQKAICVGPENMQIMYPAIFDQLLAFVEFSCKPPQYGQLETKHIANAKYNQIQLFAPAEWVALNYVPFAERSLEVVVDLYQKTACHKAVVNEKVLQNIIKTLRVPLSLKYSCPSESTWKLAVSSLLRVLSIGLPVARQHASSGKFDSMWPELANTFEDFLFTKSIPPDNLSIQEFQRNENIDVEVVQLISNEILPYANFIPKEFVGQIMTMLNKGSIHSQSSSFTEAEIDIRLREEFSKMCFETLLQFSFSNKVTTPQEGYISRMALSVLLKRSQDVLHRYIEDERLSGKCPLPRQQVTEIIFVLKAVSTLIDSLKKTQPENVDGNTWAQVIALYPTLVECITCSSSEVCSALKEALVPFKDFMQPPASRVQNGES

With “Protein DOP1A (Homo sapiens), Q5JWR5 L2178A;K2179A;R2180A;L2181A” the “effect of a mutation on the interaction” value (mon2_human MON2) was “with no effect”.

In the case of “Protein DOP1A (Homo sapiens), Q5JWR5 W34A”, the “effect of a mutation on the interaction” value (klc2_human KLC2) is reported as “disrupting interaction strength”.

In the case of “Protein DOP1A (Homo sapiens), Q5JWR5 W186A”, the “effect of a mutation on the interaction” value (klc2_human KLC2) is reported as “disrupting interaction strength”.
